Substrate: CC(=O)OCC1=C(C(=O)O)N2C(=O)[C@@H](NC(=O)[C@@H](Cc3ccccc3)NNC(=O)OCc3ccccc3[N+](=O)[O-])C2SC1
Test: The turnover kinetic parameter (Km) evaluated for Class A TEM-1 beta-lactamase

B1: Beta-lactamase TEM (Escherichia coli), P62593 (protein)
chain: MSIQHFRVALIPFFAAFCLPVFAHPETLVKVKDAEDQLGARVGYIELDLNSGKILESFRPEERFPMMSTFKVLLCGAVLSRVDAGQEQLGRRIHYSQNDLVEYSPVTEKHLTDGMTVRELCSAAITMSDNTAANLLLTTIGGPKELTAFLHNMGDHVTRLDRWEPELNEAIPNDERDTTMPAAMATTLRKLLTGELLTLASRQQLIDWMEADKVAGPLLRSALPAGWFIADKSGAGERGSRGIIAALGPDGKPSRIVVIYTTGSQATMDERNRQIAEIGASLIKHW
Km: 80 µM

Source: ChEMBL document CHEMBL1133169, “A light-inactivated antibiotic” (2000)
